Laboratory results from publication PMC9733425 (Journal of structural biology, 2022).

Biological target: the molecule itself
Test: SEC-MALS

B1: SAM1 domain of SASH1 (WT human SAM1::6xHis, residues 627-703) (domain or fragment, UniProt O94885 627-703, looked up)
chain: RRKGRPPQPKSVEDLLDRINLKEHMPTFLFNGYEDLDTFKLLEEEDLDELNIRDPEHRAVLLTAVELLQEYDSNSDQ
Question: For B1, which “stoichiometry N” value is on record?
Answer: 4
